Results on two molecules are retold here after patent US20150344570A1 (published 2015).

Common to all, as to assay: SPR (Biacore); KD of H240-Kn120/H240-Hl068/L73-k0 divided by KD of the variant
A general note: SPR reads the build-up and loss of mass on a sensor chip optically.

For test [1], the target named is T1, FcgRIIa R type extracellular domain, C-terminal His tag (human, UniProt P12318 34-217).
T1 construct: extracellular domain; Soluble analyte in Biacore; also called FcγRIIa R; FcγRIIa(R); not shown: His tag at the C terminus
T1 sequence (looked up): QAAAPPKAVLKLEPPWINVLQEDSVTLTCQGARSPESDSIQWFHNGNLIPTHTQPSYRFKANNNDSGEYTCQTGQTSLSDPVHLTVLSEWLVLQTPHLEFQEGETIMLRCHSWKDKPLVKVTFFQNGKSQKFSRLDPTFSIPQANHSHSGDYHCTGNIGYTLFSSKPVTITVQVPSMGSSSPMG
On the procedure:
(§1) H240-Kn179/H240-H1089/L73-k0, H240-Kn180/H240-Hl089/L73-k0, H240-Kn192/H240-Hl204/L73-k0, and H240-Kn193/H240-Hl204/L73-k0 were prepared by combining each of H240-Kn192 and H240-Kn193 as an H chain, L73-k0 as the L chain, and H240-Hl089 and H240-Hl204 as the other H chain according to the method described in Reference Example 1. The variants described above were assessed for their binding to FcγR according to the method described in Reference Example 8.
(§2) Analysis of interaction between objective antibody and the FcγR was carried out using Biacore T100 (GE Healthcare), Biacore T200, Biacore A100, and Biacore 4000. HBS-EP+ (GE Healthcare) was used as the running buffer, and the measurement temperature was set to 25° C. Chips produced by immobilizing the antigen peptide by the amine coupling method to a Series S sensor Chip CM5 (GE Healthcare), chips produced by allowing preliminarily biotinylated antigen peptides to interact with and immobilize onto a Series S Sensor Chip SA (certified) (GE Healthcare), chips produced by immobilizing Protein L (ACTIGEN, BioVision) to Series S Sencor Chip CM5 (GE Healthcare), or chips produced by immobilizing Protein A/G (Thermo Scientific) to Series S Sencor Chip CM5 (GE Healthcare) were used. Antibodies of interest were captured onto these chips, and allowed to interact to each FcγR diluted with running buffer. To regenerate and repeatedly use the chip, the antibodies captured onto the chip were washed off by reacting 10 mM glycine-HCl, pH 1.5.

In test [2] the target is T2, FcgRIIIa V type extracellular domain, C-terminal His tag (human, UniProt P08637 17-208).
T2 construct: extracellular domain; Soluble analyte in Biacore; also called FcγRIIIa V; not shown: His tag at the C terminus
On the procedure: as §1, §2

Test [3] addresses T3, FcgRIIb extracellular domain, C-terminal His tag (human, UniProt P31994 43-217).
T3 construct: extracellular domain; Soluble analyte in Biacore; also called FcγRIIb; not shown: His tag at the C terminus
T3 sequence (looked up): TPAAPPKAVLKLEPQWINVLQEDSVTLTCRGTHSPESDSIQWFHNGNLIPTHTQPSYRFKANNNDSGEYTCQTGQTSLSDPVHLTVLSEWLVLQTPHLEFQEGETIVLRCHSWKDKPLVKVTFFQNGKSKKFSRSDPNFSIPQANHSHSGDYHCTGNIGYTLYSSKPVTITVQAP
On the procedure:
as §1, §2

For test [4], the target named is T4, FcgRIIa H type extracellular domain, C-terminal His tag (human, UniProt P12318 34-217).
T4 construct: extracellular domain; Soluble analyte in Biacore; also called FcγRIIa H; FcγRIIa(H); not shown: His tag at the C terminus
T4 sequence (looked up): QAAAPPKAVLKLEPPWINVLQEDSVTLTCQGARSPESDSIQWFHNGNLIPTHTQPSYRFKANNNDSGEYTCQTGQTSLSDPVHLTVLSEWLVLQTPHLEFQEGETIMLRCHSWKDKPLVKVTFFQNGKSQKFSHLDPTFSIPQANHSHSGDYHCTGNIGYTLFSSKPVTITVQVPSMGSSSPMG
On the procedure: as §1, §2

The target of test [5] is T5, FcgRIIIa F type extracellular domain, C-terminal His tag (human, UniProt P08637 17-208).
T5 construct: extracellular domain; Soluble analyte in Biacore; also called FcγRIIIa F; not shown: His tag at the C terminus
Here is the method: as §1, §2

T5 sequence (P08637 17-208): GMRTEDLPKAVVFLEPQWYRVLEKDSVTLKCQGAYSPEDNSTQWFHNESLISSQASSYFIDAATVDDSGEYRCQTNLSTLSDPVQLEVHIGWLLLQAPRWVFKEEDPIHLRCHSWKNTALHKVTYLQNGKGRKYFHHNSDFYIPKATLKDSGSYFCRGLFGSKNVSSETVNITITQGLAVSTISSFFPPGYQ
T2 sequence (P08637 17-208 F176V): as the sequence (P08637 17-208) above, with F160V counted along it

B1: H240-Kn192/H240-Hl204/L73-k0 (antibody, human IgG1, kappa)
heavy 1: QDQLVQSGAEVKKPGASVKVSCKASGFNIKDTYIQWVRQAPGQGLEWMGRIDPLRKQTKYREKFEGRVTITADTSTNTAYMELSSLRSEDTAVYYCVRSGREFDYWGQGTLVTVSSASTKGPSVFPLAPSSKSTSGGTAALGCLVKDYFPEPVTVSWNSGALTSGVHTFPAVLQSSGLYSLSSVVTVPSSSLGTQTYICNVNHKPSNTKVDKKVEPKSCDKTHTCPPCPAPEYNWGPMVFLFPPKPKDTLMISRTPEVTCVVVDVSDEDPEVKFNWYVDGVEVHNAKTKPREKQYNATYRVVSVLTVLHQDWLNGKEYKCKVSNKDLPAPIEKTISKAKGQPREPQVCTLPPSRDELTKNQVSLWCLVKGFYPSDIAVEWESNGQPENNYKTTPPVLDSDGSFFLYSKLTVDKSRWQQGNVFSCSVMHEALHNHYTQKSLSLSP
heavy 2: QDQLVQSGAEVKKPGASVKVSCKASGFNIKDTYIQWVRQAPGQGLEWMGRIDPLRKQTKYREKFEGRVTITADTSTNTAYMELSSLRSEDTAVYYCVRSGREFDYWGQGTLVTVSSASTKGPSVFPLAPSSKSTSGGTAALGCLVKDYFPEPVTVSWNSGALTSGVHTFPAVLQSSGLYSLSSVVTVPSSSLGTQTYICNVNHKPSNTKVDKKVEPKSCDKTHTCPPCPAPELLTGPSVFLFPPKPKDTLMISRTPEVTCVVVDVSHEEPEVKFNWYVDGVEVHNAKTKPREEQYNSTYRVVSVLTVLHQDWLNGKEYKCKVSNDALPKPEEETISKAKGQPREPQVYTLPPSRCELTKNQVSLSCAVKGFYPSDIAVEWESNGQPENNYKTTPPVLDSDGSFFLVSKLTVDKSRWQQGNVFSCSVMHEALHNHYTQKSLSLSP
light: DIQMTQSPSSLSASVGDRVTITCRASQDIHKYIAWYQQKPGQAPRLLIQYTSTLQPGVPSRFSGSGSGTDYTFTISSLQPEDIATYYCLQYEQLRTFGGGTKVEIKRTVAAPSVFIFPPSDEQLKSGTASVVCLLNNFYPREAKVQWKVDNALQSGNSQESVTEQDSKDSTYSLSSTLTLSKADYEKHKVYACEVTHQGLSSPVTKSFNRGEC
notes: H240-Kn192 is H240-Kn120 with Y235N and E294K; also called H240-Kn192/H240-HI204/L73-k0
Turning to B1, the “relative KD” value stood at 1.1 in test [1]; 0.2 in test [2]; 0.5 in test [3]; 1 in test [4]; 0.2 in test [5].

B2: H240-Kn193/H240-Hl204/L73-k0 (antibody, human IgG1, kappa)
heavy 1: QDQLVQSGAEVKKPGASVKVSCKASGFNIKDTYIQWVRQAPGQGLEWMGRIDPLRKQTKYREKFEGRVTITADTSTNTAYMELSSLRSEDTAVYYCVRSGREFDYWGQGTLVTVSSASTKGPSVFPLAPSSKSTSGGTAALGCLVKDYFPEPVTVSWNSGALTSGVHTFPAVLQSSGLYSLSSVVTVPSSSLGTQTYICNVNHKPSNTKVDKKVEPKSCDKTHTCPPCPAPEYNWGPMVFLFPPKPKDTLMISRTPEVTCVVVDVSDEDPEVKFNWYVDGVEVHNAKTKPRERQYNATYRVVSVLTVLHQDWLNGKEYKCKVSNKDLPAPIEKTISKAKGQPREPQVCTLPPSRDELTKNQVSLWCLVKGFYPSDIAVEWESNGQPENNYKTTPPVLDSDGSFFLYSKLTVDKSRWQQGNVFSCSVMHEALHNHYTQKSLSLSP
heavy 2: QDQLVQSGAEVKKPGASVKVSCKASGFNIKDTYIQWVRQAPGQGLEWMGRIDPLRKQTKYREKFEGRVTITADTSTNTAYMELSSLRSEDTAVYYCVRSGREFDYWGQGTLVTVSSASTKGPSVFPLAPSSKSTSGGTAALGCLVKDYFPEPVTVSWNSGALTSGVHTFPAVLQSSGLYSLSSVVTVPSSSLGTQTYICNVNHKPSNTKVDKKVEPKSCDKTHTCPPCPAPELLTGPSVFLFPPKPKDTLMISRTPEVTCVVVDVSHEEPEVKFNWYVDGVEVHNAKTKPREEQYNSTYRVVSVLTVLHQDWLNGKEYKCKVSNDALPKPEEETISKAKGQPREPQVYTLPPSRCELTKNQVSLSCAVKGFYPSDIAVEWESNGQPENNYKTTPPVLDSDGSFFLVSKLTVDKSRWQQGNVFSCSVMHEALHNHYTQKSLSLSP
light: DIQMTQSPSSLSASVGDRVTITCRASQDIHKYIAWYQQKPGQAPRLLIQYTSTLQPGVPSRFSGSGSGTDYTFTISSLQPEDIATYYCLQYEQLRTFGGGTKVEIKRTVAAPSVFIFPPSDEQLKSGTASVVCLLNNFYPREAKVQWKVDNALQSGNSQESVTEQDSKDSTYSLSSTLTLSKADYEKHKVYACEVTHQGLSSPVTKSFNRGEC
notes: H240-Kn193 is H240-Kn120 with Y235N and E294R; also called H240-Kn193/H240-HI204/L73-k0
Consider B2, for which the “relative KD” value in test [1] was determined as 1.3; in test [2], 0.2; in test [3], 0.5; in test [4] it was 1.2; in test [5], 0.2.
